Data taken from article PMC6900541 (Proceedings of the National Academy of Sciences of the …, 2019).

Target: T1, human PD-L2 ectodomain (human, UniProt Q9BQ51 20-220)
T1 sequence: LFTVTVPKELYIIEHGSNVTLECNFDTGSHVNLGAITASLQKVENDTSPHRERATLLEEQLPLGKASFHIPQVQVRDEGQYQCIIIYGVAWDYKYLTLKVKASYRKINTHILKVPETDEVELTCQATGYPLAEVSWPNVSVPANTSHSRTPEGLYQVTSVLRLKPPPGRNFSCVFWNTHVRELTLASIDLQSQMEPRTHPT
Assay: BLI

B1: human PD-1 triple mutant (N74G T76P A132V), PD-1-Fc (Fc fusion)
chain: LDSPDRPWNPPTFSPALLVVTEGDNATFTCSFSNTSESFVLNWYRMSPSGQPDKLAAFPEDRSQPGQDCRFRVTQLPNGRDFHMSVVRARRNDSGTYLCGAISLAPKVQIKESLRAELRVTERRAEVPTAHPSPSPRPAGQFQTLV
With B1 as the binder, how does the Kd read?
The Kd was 2.6 nM.
